This is an account of results in US20250340660A1 (published 2025).

Positions count from the first letter of the chain named.

By Kd is commonly meant a measure of binding affinity in units of concentration.

T1: human CD30L (recombinant protein) (human, UniProt P32971 63-234)
T1 construct: also called rhCD30L; TNFSF8
T1 sequence: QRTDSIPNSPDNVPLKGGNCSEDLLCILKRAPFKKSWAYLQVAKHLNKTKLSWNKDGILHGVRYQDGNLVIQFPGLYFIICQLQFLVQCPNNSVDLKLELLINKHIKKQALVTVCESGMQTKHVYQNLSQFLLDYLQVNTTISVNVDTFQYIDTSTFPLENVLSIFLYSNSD

T2: cynomolgus CD30L expressed on cells (cynomolgus, UniProt A0A7N9CVX7 1-234)
T2 construct: whole, on cells; also called cyCD30L; cyno CD30L
T2 sequence: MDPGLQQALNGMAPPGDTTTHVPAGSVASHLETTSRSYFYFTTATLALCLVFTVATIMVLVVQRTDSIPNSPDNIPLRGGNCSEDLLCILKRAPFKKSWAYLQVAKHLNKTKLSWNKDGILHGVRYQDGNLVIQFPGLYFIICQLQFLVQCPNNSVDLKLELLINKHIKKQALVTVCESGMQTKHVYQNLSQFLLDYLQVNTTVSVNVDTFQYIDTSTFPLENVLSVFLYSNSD

T3: recombinant human CD30L (human, UniProt P32971 63-234, limits assumed)
T3 construct: also called rhCD30L; TNFSF8
T3 sequence (looked up): T1 sequence

T4: recombinant human CD30L protein (human, UniProt P32971 63-234, limits assumed)
T4 construct: also called huCD30L; rhCD30L
T4 sequence (looked up): T1 sequence

T5: human CD30L expressed on cells (human, UniProt P32971 1-234)
T5 construct: also called huCD30L; TNFSF8
T5 sequence: T2 sequence with T19A, T20M, E32G, F41L, I75V, R78K, V204I, V227I

T6: human CD30L expressed on B16 cells (human, UniProt P32971 1-234)
T6 sequence (looked up): T2 sequence with T19A, T20M, E32G, F41L, I75V, R78K, V204I, V227I

T7: cynomolgus CD30L expressed on HEK293 cells (cynomolgus, UniProt A0A7N9CVX7 1-234)
T7 sequence: T2 sequence

B1: anti-CD30L antibody clone 82 (antibody, V domains shown)
VH: EVQLVESGGGLVQPGGSLRLSCAVSGITFSNAWMSWVRQAPGKGLEWVGRIKSKTYGGTTDYAAPVKGRFIISRDDSKDTLYLQMNSLKTEDTAIYYCTTDPWNYVNYNYFMDVWGKGTTVTVSS
VL: DIQMTQSPSSLSASVGDRVTITCRASQDIRNYLAWYQQKPGKITHLLVYAASTLQSGVPSRFSGSGSGTDFTLTINSLQPEDVATYYCQNYFSVPLTFGGGTKVEIK
notes: Purified recombinant antibody
B2: anti-CD30L antibody clone 64 (antibody, V domains shown)
VH: EVQLVESGGGLVQPGGSLRLSCAASGFTFSNYAMTWVRQAPGKGLEWVSAISGFGGSTYYADSVKGRFTISRDNSKNTLYLQMNSLRAEDTAVYYCAKDHDYYAFDYWGQGTLVTVSS
VL: not shown
notes: Purified recombinant antibody
B3: anti-CD30L antibody clone 65 (antibody, V domains shown)
VH: B2 VH with R19K, F54Y, D62A, Y80F, T115P
VL: not shown
notes: Purified recombinant antibody
B4: anti-CD30L antibody clone 63 (antibody, V domains shown)
VH: EVQLVESGGGLVQPGGSLRLSCAASGFMFSSYSMNWVRQAPGKGLEWVSYISSSSSTIYDADSVKGRFTISRDDAKNSLYLQMNSLRDEDTAVYYCTREAYPGYYYNYMDVWGKGTTVTVSS
VL: DIQMTQSPSSLSASVGDRVTITCRASQSISSRLAWYQQKPGKAPNLLIYKASNLESGVPSRFSGSGSGTEFTLTISSLQPDDFATYYCQQYNSYSRTFGQGTKVEIK
notes: Purified recombinant antibody
B5: anti-CD30L antibody clone 80 (antibody, V domains shown)
VH: EVQLVESGGGLVQPGGSLRLSCEVSGFTFSSYDMHWVRQVTGTGLEWVSSIGIGGDTYYPGSVKGRFTISRENAKNSLYLQMNSLRGGDTGVYYCARGEWDLLWYFMDVWGKGTTVTVSS
VL: DIQMTQSPSSLSASIGDRVTITCRASQGISSWLAWYQQKPGKAPKLLIYAASSLQSGVPSRFSGSGSGTDFTLTISSLQPEDFATYYCQQANSFPLTFGGGTKVEIK
notes: Purified recombinant antibody
B6: anti-CD30L antibody Clone 3 (parental, hybridoma) (antibody, V domains shown)
VH: QVQLQESGPGLVKPSETLSLTCTVSGGSISGYYWSWIRQPPVKGLEWIGYIFYSGYTKYNPSLKSRVTISVDTSKNQFSLKLSSVTAADTAVYYCARDRWDFDYWGQGALVTVSS
VL: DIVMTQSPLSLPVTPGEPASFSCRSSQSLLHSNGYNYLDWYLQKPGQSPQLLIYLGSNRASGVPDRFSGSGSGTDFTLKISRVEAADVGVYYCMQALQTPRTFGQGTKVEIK
notes: Tested as diluted hybridoma supernatant from mice with a humanized immunoglobulin locus
B7: anti-CD30L antibody Clone 1 (parental, hybridoma) (antibody, V domains shown)
VH: B6 VH
VL: AIQMTQSPSYLSASVGDRVTIACRASQGIRNNLGWYQQKPGKAPKLLIYAESSLQSGVPSRFSGSGSGTDFTLTISSLQPEDFATYYCLQDFNYPYTFGQGTKLEIK
notes: as for B6
B8: anti-CD30L antibody Clone 4 (parental, hybridoma) (antibody, V domains shown)
VH: QVQLVESGGGVVQPGRSLRLSCAASGFPFSSYGMHWVRQAPGKGLEWVTFIWFDGNNKDYADSVKGRFSVSRDNSKNTLYLQMNSLRADDTAVYYCARNGVYYGSGAYVDYWGQGTLVTVSS
VL: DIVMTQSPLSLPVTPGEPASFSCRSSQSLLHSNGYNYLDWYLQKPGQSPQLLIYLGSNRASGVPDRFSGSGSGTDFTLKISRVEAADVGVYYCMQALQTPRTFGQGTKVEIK
notes: as for B6
B9: anti-CD30L antibody Clone 2 (parental, hybridoma) (antibody, V domains shown)
VH: EVQLVESGGGLVQPGRSLRLSCAASGFNFDDYAMHWVRQAPGKGLEWVSGISWRSGNIGYAGSVKGRFTISRDNAKNSLYLQMNSLRPEDSALYYCAKDKGIGFNWNYEGFDYWGQGTLVTVSS
VL: B5 VL with I15V, S31N, W32H, Y36F, L46S, R61K, A91Y, N92V, S93T, F94Y
notes: as for B6
B10: anti-CD30L antibody clone 64 (antibody, V domains shown)
VH: B2 VH
VL: not shown
notes: purified recombinant IgG, humanized mouse strain #1; also called Clone ID 64
B11: anti-CD30L antibody clone 65 (antibody, V domains shown)
VH: B2 VH with R19K, F54Y, D62A, Y80F, T115P
VL: not shown
notes: purified recombinant IgG, humanized mouse strain #1; also called Clone ID 65
B12: anti-CD30L antibody clone 63 (antibody, V domains shown)
VH: B4 VH
VL: B4 VL
notes: purified recombinant IgG, humanized mouse strain #1; also called Clone ID 63
B13: anti-CD30L antibody clone 1 (antibody, V domains shown)
VH: B6 VH
VL: B7 VL
B14: anti-CD30L antibody clone 1 germlined (antibody, V domains shown)
VH: B6 VH with V42G, A109T
VL: B7 VL with Y10S, A22T
B15: anti-CD30L Reference 1 antibody (antibody, human IgG1, lambda, V domains shown)
VH: QVQLQESGPGLVKPSETLSLTCTVSGGSISSYIWSWIRQPAGKGLEWIGRIYASGNTNYNPSLKSRVTISVDTSKNQFSLKLSSMTAADTAVYYCARDYRVAGTYYYYYGLDVWGQGTTVTVSS
VL: QSALTQPASVSGSPGQSITISCTGTSSDVGVYDYVSWYQQHPGKAPKLMIYEVSNRPSGVSNRFSGSKSGNTASLTISGLQTEDEADYYCSSYTSRSTWVFGGGTKLTVLG
B16: anti-CD30L antibody clone 2 (antibody, V domains shown)
VH: B9 VH
VL: B5 VL with I15V, S31N, W32H, Y36F, L46S, R61K, A91Y, N92V, S93T, F94Y
B17: anti-CD30L antibody clone 2 germlined (antibody, V domains shown)
VH: B9 VH with G62D, P88A, S91T
VL: B5 VL with I15V, S31N, W32H, Y36F, L46S, A91Y, N92V, S93T, F94Y

The target in the first assay is T1, human CD30L (recombinant protein). Nature of the assay: Carterra, human CD30L.
Take B1: the equilibrium dissociation constant (Kd) is 0.559 nM.
Take B2: the Kd is 1.57 nM.
On the same count and under the same terms, as for B3, the figure is 1.52 nM; as for B4, 1.85 nM; as for B5, 3.54 nM.

For another assay, the target named is T2, cynomolgus CD30L expressed on cells. Nature of the assay: flow cytometry, hybridoma supernatant 1/50 dil, cells expressing cynomolgus CD30L.
Take B6: the “Cell Binding (MFI)” value is 72.4 MFI.
In the case of B7, the “Cell Binding (MFI)” value turned out to be 77.3 MFI.
Same read-out and setting: as for B8, the figure is 67.8 MFI.
B9: the “Cell Binding (MFI)” value turned out to be 57.6 MFI.

The target of the next assay is T3, recombinant human CD30L. Nature of the assay: biosensor: antibody captured, CD30L bound, competitor rhCD30 added; signal of CD30 association (over 0.15 = non-blocking).
Method: Briefly, individual anti-human biosensors were loaded with purified IgG (normalized to 10 μg/mL) and a baseline was measured for each biosensor. Biosensors were saturated with biotin and with polyclonal huIgG and a baseline was measured. […] Biosensors were moved to buffer wells to measure the dissociation rate.
In the case of B10, the “rhCD30L:rhCD30 Blocking” value amounted to 0.0633 relative units.
Regarding B11, the “rhCD30L:rhCD30 Blocking” value turned out to be 0.0522 relative units.
The same measure, in the same setting: to B12 belongs 0.0592 relative units.

In another assay the target is T4, recombinant human CD30L protein. The assay is described as follows: ELISA, hybridoma supernatant 1/5000 dil, recombinant human CD30L.
For the molecule B6, the “Elisa Binding (OD)” value was determined as 0.662 OD.
As for B7, the “Elisa Binding (OD)” value was determined as 1.28 OD.
On the same count and under the same terms, to B8 belongs 0.68 OD; to B9, 0.565 OD.

A further assay addresses T5, human CD30L expressed on cells. The assay is described as follows: flow cytometry, hybridoma supernatant 1/50 dil, cells expressing human CD30L. On the technique in general: In flow cytometry, cells or beads pass a laser one at a time.
Take B6: the “Cell Binding (MFI)” value amounted to 153 MFI.
On to B7, for which the “Cell Binding (MFI)” value was determined as 208 MFI.
For the molecule B8, the “Cell Binding (MFI)” value was determined as 151 MFI.
In the case of B9, the “Cell Binding (MFI)” value is 280 MFI.

The target of a further assay is T6, human CD30L expressed on B16 cells. Nature of the assay: cell-based or functional assay.
Take B13: the “Inhibition of IL-8 release in a dual cell assay (B16-huCD30L cells + K299 cells) IC50” value worked out at 1.43 nM.
For the molecule B14, the “Inhibition of IL-8 release in a dual cell assay (B16-huCD30L cells + K299 cells) IC50” value came to 1.29 nM.
Take B15: the “Inhibition of IL-8 release in a dual cell assay (B16-huCD30L cells + K299 cells) IC50” value is 1.61 nM.
B16: the “Inhibition of IL-8 release in a dual cell assay (B16-huCD30L cells + K299 cells) IC50” value was 0.81 nM.
Regarding B17, the “Inhibition of IL-8 release in a dual cell assay (B16-huCD30L cells + K299 cells) IC50” value amounted to 0.89 nM.

The target of another assay is T7, cynomolgus CD30L expressed on HEK293 …. The assay is described as follows: cell-based or functional assay.
B13: the “Inhibition of IL-8 release in a dual cell assay (HEK293-cyCD30L cells + K299 cells) IC50” value is 0.39 nM.
As to B14, the “Inhibition of IL-8 release in a dual cell assay (HEK293-cyCD30L cells + K299 cells) IC50” value is 0.43 nM.
The same measure, in the same setting: to B15 belongs 0.79 nM; to B16, 0.31 nM.
The same measure, in the same setting: as for B17, the figure is 0.41 nM.

A further assay deals with T4, recombinant human CD30L protein. The assay is described as follows: ELISA, hybridoma supernatant 1/50 dil, recombinant human CD30L. A general note: An ELISA detects its analyte on a solid surface through an enzyme-linked reagent.
Turning to B6, the “Elisa Binding (OD)” value turned out to be 3.5 OD.
Turning to B7, the “Elisa Binding (OD)” value came to 3.59 OD.
In the case of B8, the “Elisa Binding (OD)” value worked out at 3.08 OD.
As for B9, the “Elisa Binding (OD)” value was 2.15 OD.

The next assay has the same target. The assay is described as follows: ELISA, hybridoma supernatant 1/500 dil, recombinant human CD30L.
Regarding B6, the “Elisa Binding (OD)” value came to 2.54 OD.
Take B7: the “Elisa Binding (OD)” value stood at 3.02 OD.
Turning to B8, the “Elisa Binding (OD)” value came out at 2.65 OD.
Regarding B9, the “Elisa Binding (OD)” value is 1.71 OD.
